Molecular target: T1, phosphorylated HGFR (pHGFR) (Homo sapiens, UniProt P08581)
T1 construct: The cDNA corresponding to residues 1051-1349 of the HGFR kinase catalytic domain (HGFRkd) was cloned into a pFastBac plasmid; added N-terminal methionine (start codon of the NcoI site) (N); made in house; host or cells: Sf9 insect cells, recombinant baculovirus; then autophosphorylated in vitro with MgATP
Assay: Coupled enzymatic (PK/LDH) kinase assay, phospho-HGFR
Type: biochemical
Details: coupled, enzymatic format; phosphorylation state of HGFR not stated; read-out: Km, Dephosphorylated α-casein
Procedure: A coupled enzymatic assay format was used to measure both HGFR and phospho-HGFR(PHGFR) activities. The kinase-catalyzed production of ADP from ATP that accompanies phosphate transfer to the random copolymer poly(Glu4Tyr) or peptide substrate was coupled to the oxidation of NADH through the activities of pyruvate kinase (PK) and lactate dehydrogenase (LDH). NADH conversion to NAD^+ was monitored by the decrease in absorbance at 340 nm (ε=6.22 cm^−1 mM^−1) using a Beckman DU650 spectrophotometer. A typical reaction solution contained 1 mM phosphoenolpyruvate, 0.24 mM NADH, 40 mM MgCl2, 5 mM DTT, poly(Glu4Tyr), ATP, 15 units/mL PK, 15 units/mL LDH in 100 mM HEPES, pH 7.5. […]
The kinetic consequences of the autophosphorylation were investigated. HGFR and pHGFR activities were evaluated in two distinct and complementing assay formats. […] NADH conversion to NAD^+ was monitored spectrophotometrically by the decrease in absorbance at 340 nm (ε=6.22 cm^−1 mM^−1). […]
Inhibition of HGFR and pHGFR were monitored in two distinct assay formats to insure valid results. The coupled, enzymatic format (CE) was a continuous assay that measured ADP production through the sequential action of two standard coupling enzymes (pyruvate kinase and lactate dehydrogenase). The radioactive assay format was a discontinuous assay that measured phospho-protein production directly. […]

T1 sequence (P08581 1051-1349): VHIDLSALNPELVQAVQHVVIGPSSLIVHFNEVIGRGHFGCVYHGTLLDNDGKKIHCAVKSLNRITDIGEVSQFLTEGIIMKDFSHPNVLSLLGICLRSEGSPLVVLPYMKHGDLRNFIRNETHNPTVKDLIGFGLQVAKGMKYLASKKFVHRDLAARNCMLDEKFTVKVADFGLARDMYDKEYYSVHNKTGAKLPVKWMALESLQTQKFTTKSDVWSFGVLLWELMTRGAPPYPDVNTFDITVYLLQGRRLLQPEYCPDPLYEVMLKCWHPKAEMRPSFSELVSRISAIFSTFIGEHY

B1: Dephosphorylated α-casein: phosphoacceptor protein substrate for HGFR (protein)
chain: RPKHPIKHQGLPQEVLNENLLRFFVAPFPEVFGKEKVNELSKDIGSESTEDQAMEDIKQMEAESISSSEEIVPNSVEQKHIQKEDVPSERYLGYLEQLLRLKKYKVPQLEIVPNSAEERLHSMKEGIHAQQKEPMIGVNQELAYFYPELFRQFYQLDAYPSGAWYYVPLGTQYTDAPSFSDIPNPIGSENSEKTTMPLW
Km: 28.5 ± 3.5 µM
